Like-named read-outs stand apart in the source and are kept apart here. Values belong to the binder of their own block, whether it stands above or below them.
Assays:
HLA-A*0201 [1] = target: HLA-A*0201 (human)
HLA-A*0202 [2] = target: HLA-A*0202 (human); assay: inhibition of 125I probe peptide binding to purified HLA, gel filtration
HLA-A*0202 [3] = target: HLA-A*0202 (human); assay: competition with 125I-labelled standard peptide for purified HLA
HLA-A*0203 [4] = target: HLA-A*0203 (human); assay: inhibition of 125I probe peptide binding to purified HLA
HLA-A*6802 [5] = target: HLA-A*6802 (human); assay: as above
HLA-A*0201 [6] = target: HLA-A*0201 (human); remark: listed apart in the source
HLA-A*0203 [7] = target: HLA-A*0203 (human); assay: competition with 125I probe peptide on purified HLA, gel filtration
HLA-A*0202 [8] = target: HLA-A*0202 (human)
HLA-A*0206 [9] = target: HLA-A*0206 (human)
HLA-A*0203 [10] = target: HLA-A*0203 (human)
HLA-A*0201 [11] = target: HLA-A*0201 (human); assay: inhibition of 125I probe peptide binding to purified HLA
HLA-A*0206 [12] = target: HLA-A*0206 (human); assay: as above
HLA-A*0203 [13] = target: HLA-A*0203 (human); assay: competition with 125I-labeled probe peptide for purified HLA, gel filtration
HLA-A*0201 [14] = target: HLA-A*0201 (human); assay: as above
HLA-A*6802 [15] = target: HLA-A*6802 (human); assay: as above
HLA-A*0206 [16] = target: HLA-A*0206 (human); assay: as above

- IC50 (HLA-A*0201 [1]): > 200 nM
B1: PSM.514 (peptide)
peptide: KLGSGNDFEV

- IC50 (HLA-A*0201 [1]): ≤ 200 nM
B2: PAP.112 (peptide)
peptide: TLMSAMTNL

- IC50 (HLA-A*0201 [1]): ≤ 200 nM
B3: PSA.118 (11-mer MLLRLSEPAEL) (peptide)
peptide: MLLRLSEPAEL

- IC50 (HLA-A*0202 [2]): 3 nM
B4: Peptide 63.0186 (PSA.3.V11) (peptide)
peptide: FLTLSVTWIGV

- IC50 (HLA-A*0201 [1]): > 200 nM
B5: PSM.25 (peptide)
peptide: ALVLAGGFFL

- IC50 (HLA-A*0201 [1]): ≤ 200 nM
B6: PAP.6 (peptide)
peptide: LLLARAASLSL

- IC50 (HLA-A*0202 [3]): 3 nM
B7: peptide 1419.27, PSA.3.V11 (peptide)
peptide: FLTLSVTWIGV

- IC50 (HLA-A*0201 [1]): > 200 nM
B8: PSM.4 (peptide)
peptide: LLHETDSAV

- IC50 (HLA-A*0203 [4]): 2.8 nM
- IC50 (HLA-A*6802 [5]): 364 nM
B9: Peptide 63.0138 FLLFFWLDRSV (PAP.20) (peptide)
peptide: FLLFFWLDRSV

- IC50 (HLA-A*0201 [6]): 56 nM
B10: peptide 1418.71, HuK2.191.V11 (peptide)
peptide: KVTEFMLCAGV

- IC50 (HLA-A*0203 [7]): 122 nM
B11: Peptide 60.0213 TVSGLQMAV (PAP.292.V9) (peptide)
peptide: TVSGLQMAV

- IC50 (HLA-A*0202 [8]): 6.3 nM
- IC50 (HLA-A*0206 [9]): 5.2 nM
- IC50 (HLA-A*0203 [10]): 2.8 nM
B12: peptide 1418.52 (HuK2.170.V10) (peptide)
peptide: SLQCVSLHLV

- IC50 (HLA-A*0201 [1]): ≤ 200 nM
B13: PSM.469 (peptide)
peptide: LMYSLVHNL

- IC50 (HLA-A*0203 [4]): 5.3 nM
- IC50 (HLA-A*0201 [11]): 8.1 nM
- IC50 (HLA-A*0206 [12]): 80 nM
B14: Peptide 63.0136 LLLARAASLSL (PAP.6) (peptide)
peptide: LLLARAASLSL

- IC50 (HLA-A*0201 [1]): ≤ 200 nM
B15: PSM.663 (peptide)
peptide: MMNDQLMFL

- IC50 (HLA-A*0203 [13]): 44 nM
- IC50 (HLA-A*0201 [14]): 238 nM
- IC50 (HLA-A*6802 [15]): 258 nM
- IC50 (HLA-A*0206 [16]): 82 nM
B16: Peptide 1418.30 (peptide)
peptide: ATFDIESKV

- IC50 (HLA-A*0206 [9]): 206 nM
- IC50 (HLA-A*0203 [10]): 40 nM
B17: peptide 1418.59 (HuK2.8.T2) (peptide)
peptide: ITLSVGCTGAV

- IC50 (HLA-A*0201 [1]): > 200 nM
B18: PSM.427 (peptide)
peptide: GLLGSTEWA

Reference: patent US20040037843A1 (published 2004)
